Drawing on publication PMC10881965, “Structural optimization of siRNA conjugates for albumin binding achieves effective MCL1-directed cancer therapy”, this text covers Kd for two molecules.

For the data set, the target named is human serum albumin (Homo sapiens, UniProt P02768 25-609). As to the kind of experiment: BLI; EMSA: 0.1 nmol siRNA conjugate, 5x molar excess albumin, 30 min at 37 C, 4-20% TGX gel; BLI: albumin 400 nM (or varied), buffer not in material. (Biolayer interferometry detects binding as a change in optical thickness at a sensor tip.)
Sequence of human serum albumin (P02768 25-609): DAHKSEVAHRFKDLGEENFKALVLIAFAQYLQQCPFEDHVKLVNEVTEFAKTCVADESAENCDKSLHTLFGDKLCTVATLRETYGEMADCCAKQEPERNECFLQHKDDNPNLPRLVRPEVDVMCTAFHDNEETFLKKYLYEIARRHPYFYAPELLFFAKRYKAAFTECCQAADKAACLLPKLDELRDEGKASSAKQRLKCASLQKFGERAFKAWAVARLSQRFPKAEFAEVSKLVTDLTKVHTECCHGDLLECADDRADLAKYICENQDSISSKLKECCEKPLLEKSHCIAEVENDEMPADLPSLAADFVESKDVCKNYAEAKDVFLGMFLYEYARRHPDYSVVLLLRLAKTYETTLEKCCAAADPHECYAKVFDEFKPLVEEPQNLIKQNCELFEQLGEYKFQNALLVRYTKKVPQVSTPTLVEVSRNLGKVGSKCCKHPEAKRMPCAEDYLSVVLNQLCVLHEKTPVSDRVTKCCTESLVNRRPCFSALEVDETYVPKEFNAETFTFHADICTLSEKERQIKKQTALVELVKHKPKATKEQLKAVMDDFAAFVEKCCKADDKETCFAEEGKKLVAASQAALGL

B1: si<(EG18L)2 (dsRNA)
RNA 1: CAAUUGCACUGAUAAUGAA
RNA 2: UUCAUUAUCAGUGCAAUUG
modifications: 2'-F/2'-OMe, PS; 5' sense divalent stearyl, 18 EG per arm, proximal branch
Broadly, the Kd is the constant that tells how readily two partners part at equilibrium. A lower Kd goes with higher affinity. For the molecule B1, the Kd stood at 30 ± 0.3 nM.

B2: si<(EG30L)2 (dsRNA)
RNA 1: CAAUUGCACUGAUAAUGAA
RNA 2: UUCAUUAUCAGUGCAAUUG
modifications: 2'-F/2'-OMe, PS; 5' sense divalent stearyl, 30 EG per arm
Molecule B2 had a Kd of 9.49 ± 0.1 nM.
